# In patent US20240158497A1 (published 2024):
# B1: bsAb19146D (bispecific antibody, V domains shown)
# VH 1: QVQLVESGGGVVQPGRSLRLSCTASGFTFSSYAMYWVRQAPGKGLEWVSVIYYDGSYKYYADSVKGRFTISRDNSKNTLYLQMDSLRAEDTAVYYCASYNWNYWYFDFWGRGTLVTVSS
# VH 2: QVQLVQSGPEVKKPGSSVKVSCKASGGTIDRNEITWVRQAPGQGLEWMGVIIPILGEAHYERKFQGRLTITMDESTSTAYMELSNLRSEDTAVYYCARERAARGYLDYWGQGTLVTVSS
# VL: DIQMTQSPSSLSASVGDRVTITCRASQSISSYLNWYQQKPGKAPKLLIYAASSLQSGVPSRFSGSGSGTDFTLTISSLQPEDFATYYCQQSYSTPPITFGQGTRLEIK
# notes: common light chain
# B2: bsAb19147D (bispecific antibody, V domains shown)
# VH 1: B1 VH 1
# VH 2: EVQLVESGGGLVQPGGSLRLSCTASGFTFSNYAIFWVRQAPGKGLEYVSGISNNGVTKYYADSVRDRFTISRDNSRNTVSIQMDSLRTEDMAVYYCARENWGSDDGFDIWGQGTMVTVSS
# VL: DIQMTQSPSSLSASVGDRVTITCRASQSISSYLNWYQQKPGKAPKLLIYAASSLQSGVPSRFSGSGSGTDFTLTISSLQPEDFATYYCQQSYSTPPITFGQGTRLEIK
# notes: common light chain
# B3: bsAb19148D (bispecific antibody, V domains shown)
# VH 1: B1 VH 1
# VH 2: QVQLVQSGTEVKKPGSSVKVSCKASGGTFSTYPINWVRQAPGQGLEWMGGIIPIFGTASYAQKFQGRVAITTDESTSTAYMELNSLRSEDTAVYYCARERPNWGSNDYWGQGTLVTVSS
# VL: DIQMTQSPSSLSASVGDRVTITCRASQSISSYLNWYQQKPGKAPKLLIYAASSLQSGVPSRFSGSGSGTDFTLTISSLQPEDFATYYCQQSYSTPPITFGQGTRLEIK
# notes: common light chain
# B4: bsAb19149D (bispecific antibody, V domains shown)
# VH 1: B1 VH 1
# VH 2: QVQLVESGGGVVQPGRSLRLACAASGFTFRSYGMHWVRQAPGKGLEWVAVIWYDGSNKYYTDSVKGRFTISRDNSKNTLYLQMNSLRAEDTAMYYCAIDKWATVTTYLFDYWGQGTLVTVSS
# VL: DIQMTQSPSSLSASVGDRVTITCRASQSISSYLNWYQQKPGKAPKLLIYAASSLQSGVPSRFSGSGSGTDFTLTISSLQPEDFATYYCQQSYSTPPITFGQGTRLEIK
# notes: common light chain
# B5: bsAb19150D (bispecific antibody, V domains shown)
# VH 1: B1 VH 1
# VH 2: EVQLVESGGGLVQSGGSLRLSCAASGFTFSRYEMNWVRQAPGKGLEWVAYISNTGTTRDYSDSVKGRFTISRDNAKNSLYLQMSSLRVEDTAVYYCVREKFSGTSDWFDPWGQGTLVTVSS
# VL: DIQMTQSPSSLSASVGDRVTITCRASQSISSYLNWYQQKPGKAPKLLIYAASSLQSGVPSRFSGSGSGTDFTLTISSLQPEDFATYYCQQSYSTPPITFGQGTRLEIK
# notes: common light chain
# B6: bsAb19151D (bispecific antibody, V domains shown)
# VH 1: B1 VH 1
# VH 2: EVQLVESGGGLVQPGGSLRLSCAASGFTFSSYAMNWVRQAPGKGLEWVSAISGSGDSTYYTDSVKGRFTISRDNSKNTLYLQMNTLRAEDTAVYYCAKEEIVMLVGATPGWFDPWGQGTLVTVSS
# VL: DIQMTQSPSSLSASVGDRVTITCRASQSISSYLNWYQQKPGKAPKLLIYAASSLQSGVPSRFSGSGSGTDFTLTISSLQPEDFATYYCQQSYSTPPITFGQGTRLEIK
# notes: common light chain
# B7: bsAb19152D (bispecific antibody, V domains shown)
# VH 1: B1 VH 1
# VH 2: EVQLVQSGAEVKKPGESLKISCKGSGYSFTSYWIDWVRQMPGKGLEWMGIIYPDDSDTRYSPSFQGQVTMSVDKSISTAYLQWSSLKASDTAIYYCARHERGIVEAGTDYYYYYGMDVWGQGTTVTVSS
# VL: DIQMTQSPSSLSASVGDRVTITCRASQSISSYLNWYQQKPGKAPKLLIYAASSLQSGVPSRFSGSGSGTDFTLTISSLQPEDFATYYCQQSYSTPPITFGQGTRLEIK
# notes: common light chain
# B8: bsAb19153D (bispecific antibody, V domains shown)
# VH 1: B1 VH 1
# VH 2: QVQLVQSGAEVMKPGASVKVSCRASGYTFSSYDINWVRQAPGQGLEWMGWISTATGNTNYPQKVQGRVTMTTDTSTNTAYMELRSLRSDDTAVYYCTREGNSKGWLDPWGQGTLVTVSS
# VL: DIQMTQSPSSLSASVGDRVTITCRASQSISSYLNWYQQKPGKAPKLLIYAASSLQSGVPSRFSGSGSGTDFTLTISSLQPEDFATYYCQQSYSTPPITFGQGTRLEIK
# notes: common light chain
# B9: bsAb19154D (bispecific antibody, V domains shown)
# VH 1: B1 VH 1
# VH 2: QVQLQQSGPGQMKSSQTLTLTCAISGDSVSSNSAIWYWIRQSPSRGLEWLGRTKFRSKWYNDFALSMKSRITINPDTSKNQFSLHLNSVTPEDTAVYYCARYKWELYFDYWGQGTLVTVSS
# VL: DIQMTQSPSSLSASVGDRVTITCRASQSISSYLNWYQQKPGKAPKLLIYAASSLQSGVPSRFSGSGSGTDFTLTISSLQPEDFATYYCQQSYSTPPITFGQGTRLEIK
# notes: common light chain
# B10: bsAb19155D (bispecific antibody, V domains shown)
# VH 1: B1 VH 1
# VH 2: EVQLVESGGGLVQPGGSLRLSCAASGFTFSTYWMNWVRQAPGKGLEWVANIKEDGSEKYYVDSVKGRFTISRDNAKNSLYLQMNSLRAEDTAVYYCAREGFGVVTYIWGQGTMVTVSS
# VL: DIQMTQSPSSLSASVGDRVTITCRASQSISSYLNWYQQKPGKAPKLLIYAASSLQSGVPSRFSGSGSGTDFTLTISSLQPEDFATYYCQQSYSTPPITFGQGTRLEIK
# notes: common light chain
# Molecular target: T1, Macaca Fascicularis LEPR extracellular domain expressed with a C-terminal myc-myc-hexahistidine tag (Macaca fascicularis, UniProt Q9MYL0 22-837 (rhesus entry))
# T1 construct: Monomeric reagent; the whole entry is the construct with its tag; also called mfLEPR-MMH
# Assay: SPR Biacore 4000, bsAb captured by anti-human Fc, 25 C
# Protocol: (§1) Equilibrium dissociation constants (KD values) for LEPR and GP130 binding to purified anti-LEPR/GP130 bispecific antibodies were determined using a real-time surface plasmon resonance biosensor using a Biacore 4000 instrument. All binding studies were performed in 10 mM HEPES, 150 mM NaCl, 3 mM EDTA, and 0.05% v/v Surfactant Tween-20, pH 7.4 (HBS-ET) running buffer at 25° C. and 37° C. The Biacore sensor surface was first derivatized by amine coupling with a monoclonal mouse anti-human Fc antibody (GE, #BR-1008-39) to capture anti-LEPR/GP130 bispecific antibodies. […] Different concentrations of LEPR or GP130 reagents were first prepared in HBS-ET running buffer (100 nM-3.7 nM; 3-fold serial dilution) and were injected over anti-human Fc captured anti-LEPR/GP130 bispecific antibody surface for 4 minutes at a flow rate of 30 μL/minute, while the dissociation of bispecific antibody bound LEPR or GP130 reagent was monitored for 10 minutes in HBS-ET running buffer. Kinetic association (kₐ) and dissociation (kd) rate constants were determined by fitting the real-time binding sensorgrams to a 1:1 binding model with mass transport limitation using Scrubber 2.0c curve-fitting software. Binding dissociation equilibrium constants (KD) and dissociative half-lives (t ½) were calculated from the kinetic rate constants as: […]
# T1 sequence (Q9MYL0 other isoform, or with tags, fused parts or gaps): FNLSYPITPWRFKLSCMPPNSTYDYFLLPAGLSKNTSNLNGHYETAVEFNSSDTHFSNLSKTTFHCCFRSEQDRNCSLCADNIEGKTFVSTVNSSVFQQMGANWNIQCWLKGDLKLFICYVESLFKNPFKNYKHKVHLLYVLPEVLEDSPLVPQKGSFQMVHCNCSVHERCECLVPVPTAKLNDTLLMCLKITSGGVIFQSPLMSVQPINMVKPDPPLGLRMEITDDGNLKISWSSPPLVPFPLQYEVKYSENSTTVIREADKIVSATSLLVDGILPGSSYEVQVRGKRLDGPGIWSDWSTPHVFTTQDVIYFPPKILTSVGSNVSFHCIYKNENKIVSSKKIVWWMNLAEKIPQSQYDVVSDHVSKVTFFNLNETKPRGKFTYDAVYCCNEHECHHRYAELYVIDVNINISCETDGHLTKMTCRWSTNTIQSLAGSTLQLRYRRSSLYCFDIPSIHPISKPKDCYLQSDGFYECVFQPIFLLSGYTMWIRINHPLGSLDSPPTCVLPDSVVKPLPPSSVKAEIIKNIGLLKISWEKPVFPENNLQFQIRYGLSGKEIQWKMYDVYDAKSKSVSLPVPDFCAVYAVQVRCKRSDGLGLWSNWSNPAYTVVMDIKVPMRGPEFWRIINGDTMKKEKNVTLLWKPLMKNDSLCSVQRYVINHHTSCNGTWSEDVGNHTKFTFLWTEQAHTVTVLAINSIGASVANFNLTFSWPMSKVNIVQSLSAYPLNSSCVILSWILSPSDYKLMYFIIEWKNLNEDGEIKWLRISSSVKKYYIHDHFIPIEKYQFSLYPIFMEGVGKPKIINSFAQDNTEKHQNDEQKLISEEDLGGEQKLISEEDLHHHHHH
Binder,100 nM mfLEPR-MMH Bound (RU),Kd,koff,kon,t½
B1,107 RU,2.63 nM,0.000113 s⁻¹,42900 M⁻¹ s⁻¹,102 min
B2,107 RU,2.8 nM,0.000119 s⁻¹,42500 M⁻¹ s⁻¹,97 min
B3,107 RU,2.88 nM,0.000119 s⁻¹,41300 M⁻¹ s⁻¹,97 min
B4,96 RU,2.65 nM,0.000111 s⁻¹,41900 M⁻¹ s⁻¹,104 min
B5,102 RU,2.79 nM,0.000117 s⁻¹,41800 M⁻¹ s⁻¹,99 min
B6,109 RU,2.74 nM,0.000117 s⁻¹,42500 M⁻¹ s⁻¹,99 min
B7,113 RU,2.97 nM,0.000124 s⁻¹,41800 M⁻¹ s⁻¹,93 min
B8,102 RU,2.96 nM,0.000126 s⁻¹,42600 M⁻¹ s⁻¹,92 min
B9,102 RU,2.96 nM,0.000121 s⁻¹,40800 M⁻¹ s⁻¹,96 min
B10,103 RU,2.9 nM,0.000122 s⁻¹,42000 M⁻¹ s⁻¹,95 min

# Molecular target: T2, human LEPR extracellular domain expressed with a C-terminal myc-myc-hexahistidine tag (human, UniProt P48357 22-839)
# T2 construct: Monomeric reagent; the whole entry is the construct with its tag; also called hLEPR-MMH; hLEPR.mmh
# Assay: as above
# Protocol: as §1
# T2 sequence (P48357 other isoform, or with tags, fused parts or gaps): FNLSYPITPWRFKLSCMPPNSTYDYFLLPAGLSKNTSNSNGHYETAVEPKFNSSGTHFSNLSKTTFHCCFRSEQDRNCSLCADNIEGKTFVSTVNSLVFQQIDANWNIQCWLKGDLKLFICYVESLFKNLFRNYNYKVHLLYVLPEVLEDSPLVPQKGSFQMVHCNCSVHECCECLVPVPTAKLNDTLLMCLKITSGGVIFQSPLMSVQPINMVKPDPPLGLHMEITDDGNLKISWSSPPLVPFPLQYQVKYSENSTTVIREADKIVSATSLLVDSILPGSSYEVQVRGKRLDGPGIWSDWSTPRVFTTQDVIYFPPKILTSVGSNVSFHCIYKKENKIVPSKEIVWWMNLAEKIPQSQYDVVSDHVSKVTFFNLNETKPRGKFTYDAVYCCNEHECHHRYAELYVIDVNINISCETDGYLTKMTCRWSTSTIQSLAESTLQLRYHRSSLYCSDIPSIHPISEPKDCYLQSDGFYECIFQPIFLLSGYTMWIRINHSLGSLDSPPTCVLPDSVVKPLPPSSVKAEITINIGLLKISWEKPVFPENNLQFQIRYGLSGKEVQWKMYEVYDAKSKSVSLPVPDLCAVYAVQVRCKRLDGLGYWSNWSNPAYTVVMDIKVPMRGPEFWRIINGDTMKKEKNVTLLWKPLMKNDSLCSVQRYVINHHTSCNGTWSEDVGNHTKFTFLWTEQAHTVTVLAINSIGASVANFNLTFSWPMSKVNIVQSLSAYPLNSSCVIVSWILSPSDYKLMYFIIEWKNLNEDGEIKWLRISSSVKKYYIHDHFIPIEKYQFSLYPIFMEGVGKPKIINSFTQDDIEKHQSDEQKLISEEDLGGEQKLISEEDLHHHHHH
Binder,100 nM hLEPR-MMH Bound (RU),Kd,koff,kon,t½
B1,45 RU,8.16 nM,0.000179 s⁻¹,22000 M⁻¹ s⁻¹,64 min
B2,42 RU,7.13 nM,0.000162 s⁻¹,22700 M⁻¹ s⁻¹,71 min
B3,44 RU,7.31 nM,0.000172 s⁻¹,23600 M⁻¹ s⁻¹,67 min
B4,36 RU,7.16 nM,0.000194 s⁻¹,27100 M⁻¹ s⁻¹,60 min
B5,41 RU,7.35 nM,0.000176 s⁻¹,24000 M⁻¹ s⁻¹,66 min
B6,46 RU,7.49 nM,0.000158 s⁻¹,21100 M⁻¹ s⁻¹,73 min
B7,47 RU,6.75 nM,0.000165 s⁻¹,24500 M⁻¹ s⁻¹,70 min
B8,40 RU,6.46 nM,0.000165 s⁻¹,25500 M⁻¹ s⁻¹,70 min
B9,40 RU,7.95 nM,0.00018 s⁻¹,22600 M⁻¹ s⁻¹,64 min
B10,40 RU,6.36 nM,0.000153 s⁻¹,24000 M⁻¹ s⁻¹,76 min

# Molecular target: T1, Macaca Fascicularis LEPR extracellular …
# Assay: SPR Biacore 4000, bsAb captured by anti-human Fc, 37 C
# Protocol: as §1
Binder,100 nM mfLEPR-MMH Bound (RU),Kd,koff,kon,t½
B1,164 RU,5.68 nM,0.000568 s⁻¹,100000 M⁻¹ s⁻¹,20 min
B2,163 RU,5.64 nM,0.000565 s⁻¹,100000 M⁻¹ s⁻¹,20 min
B3,163 RU,6.17 nM,0.000571 s⁻¹,92500 M⁻¹ s⁻¹,20 min
B4,154 RU,8.09 nM,0.000506 s⁻¹,62500 M⁻¹ s⁻¹,23 min
B5,158 RU,5.25 nM,0.000519 s⁻¹,98900 M⁻¹ s⁻¹,22 min
B6,167 RU,5.3 nM,0.000554 s⁻¹,105000 M⁻¹ s⁻¹,21 min
B7,169 RU,5.9 nM,0.000589 s⁻¹,99900 M⁻¹ s⁻¹,20 min
B8,158 RU,8.81 nM,0.00058 s⁻¹,65800 M⁻¹ s⁻¹,20 min
B9,159 RU,5.64 nM,0.000541 s⁻¹,96000 M⁻¹ s⁻¹,21 min
B10,155 RU,5.49 nM,0.000565 s⁻¹,103000 M⁻¹ s⁻¹,20 min

# Molecular target: T2, human LEPR extracellular domain …
# Assay: as above
# Protocol: as §1
Binder,100 nM hLEPR-MMH Bound (RU),Kd,koff,kon,t½
B1,69 RU,21.3 nM,0.000825 s⁻¹,38700 M⁻¹ s⁻¹,14 min
B2,65 RU,20.5 nM,0.000791 s⁻¹,38500 M⁻¹ s⁻¹,15 min
B3,69 RU,20.5 nM,0.000798 s⁻¹,39000 M⁻¹ s⁻¹,14 min
B4,61 RU,18.4 nM,0.000622 s⁻¹,33800 M⁻¹ s⁻¹,19 min
B5,63 RU,19.5 nM,0.000691 s⁻¹,35500 M⁻¹ s⁻¹,17 min
B6,70 RU,18.3 nM,0.00076 s⁻¹,41400 M⁻¹ s⁻¹,15 min
B7,74 RU,20.8 nM,0.000787 s⁻¹,37700 M⁻¹ s⁻¹,15 min
B8,65 RU,19.7 nM,0.000791 s⁻¹,40100 M⁻¹ s⁻¹,15 min
B9,65 RU,19.2 nM,0.000729 s⁻¹,37900 M⁻¹ s⁻¹,16 min
B10,63 RU,20 nM,0.000792 s⁻¹,39700 M⁻¹ s⁻¹,15 min
